Key:
HepG2 cells = test: In vitro cellular uptake in HepG2 cells; format: cell-based
[1] = Kidney-targeted delivery of full-length (22mer) anti-miR-21 PNA: biodistribution (IVIS, flow cytometry); format: in vivo, C57BL/6J mice
Protocol: FIG. 9 illustrates that LBAAc ligand efficiently delivered a 22mer long PNA sequence to the kidney. […] PNA 6 contains succinic acid (SA) at 5′ end for conjugation with LBA-lysine conjugate. Lysine (K) was added on the 3′ end of the PNA followed by fluorescent probe 5-carboxytetramethylrhodamine (TAM) of each PNA. 000 represents the trioxo-miniPEG linker. […] Radiant Efficiency for TAMRA fluorescence in the kidneys of C57BL6/J mice. Results are represented as mean of n=2 with standard error mean as the error bars.
Full-length (22mer) PNA oligomers were designed and synthesized namely PNA 5, PNA 6 and LBAAc conjugate (PNA 6-LBAAc) to target miR-21 (FIG. 9A). PNA 6 was conjugated with LBAAc as described in FIG. 2A.
Biodistribution evaluation of PNA 5 and PNA 6-LBAAc in C57BL/6J mice at a low subcutaneous dose of 1.5 mg/kg (1/10 molar equiv of short PNA 1&2): A lower dose biodistribution was chosen for a comprehensive validation of LBAAc for kidney targeting. […] (FIG. 9D). Results were confirmed by flow cytometry analysis of kidney cells. The kidney cells obtained after RBC lysis were fixed with 4% PFA and analyzed for TAMRA fluorescence. The histogram plots representing the TAMRA fluorescence from 4 and 24 h samples confirmed the elimination of PNA 5 and accumulation of PNA 6-LBAAc in the kidney cells (FIG. 9C). […] Possibly the Tmax for kidney accumulation of PNA 6-LBAAc is >4 h. Decisively, the higher concentration of PNA 6-LBAAc in the kidney at 24 h compared to 4 h time point against PNA 5 confirmed the kidney targeting and potential of the LBAAc ligand.

Row | Molecule | cellular uptake (HepG2 cells) | organ distribution of TAMRA fluorescence signal (IVIS) ([1]; 1.5 mg/kg subcutaneous) | overall pharmacokinetics / biodistribution ([1]; 1.5 mg/kg subcutaneous) | increase in kidney retention compared to unconjugated PNA 5 ([1]; 1.5 mg/kg subcutaneous, 24 h) [fold] | kidney concentration at 24 h ([1]; 1.5 mg/kg subcutaneous, 24 h) | TAMRA fluorescence in kidney cells (flow cytometry) ([1]; 4 and 24 h samples) | Tmax ([1]; mouse, in vivo, sc, 1.5 mg/kg subcutaneous, read-out: Tmax for kidney accumulation) [h]
1 | O=C(O)[C@H](O)[C@@H](O)[C@H](O[C@@H]1O[C@H](CO)[C@H](O)[C@H](O)[C@H]1O)[C@H](O)CO [LBA, lactobionic acid] | ASGPR mediated cellular uptake | – | – | – | – | – | –
2 | CC(=O)OC[C@H]1O[C@@H](O[C@@H]([C@H](OC(C)=O)[C@@H](OC(C)=O)C(=O)NCCCC[C@H](NC(=O)[C@H](OC(C)=O)[C@@H](OC(C)=O)[C@H](O[C@@H]2O[C@H](COC(C)=O)[C@H](OC(C)=O)[C@H](OC(C)=O)[C@H]2OC(C)=O)[C@@H](COC(C)=O)OC(C)=O)C(=O)NCCCCCCNC(=O)CCC(=O)NCCOCCOCCOCC(=O)NCCN(CC(=O)NCCN(CC(=O)NCCN(CC(=O)NCCN(CC(=O)NCCN(CC(=O)NCCN(CC(=O)NCCN(CC(=O)NCCN(CC(=O)NCCN(CC(=O)NCCN(CC(=O)NCCN(CC(=O)NCCN(CC(=O)NCCN(CC(=O)NCCN(CC(=O)NCCN(CC(=O)NCCN(CC(=O)NCCN(CC(=O)NCCN(CC(=O)NCCN(CC(=O)NCCN(CC(=O)NCCN(CC(=O)NCCN(CC(=O)N[C@@H](CCCCNC(=O)COCCOCCOCCNC(=O)c2ccc(-c3c4ccc(=[N+](C)C)cc-4oc4cc(N(C)C)ccc34)c(C(=O)[O-])c2)C(N)=O)C(=O)Cn2cnc3c(N)ncnc32)C(=O)Cn2cc(C)c(=O)[nH]c2=O)C(=O)Cn2ccc(N)nc2=O)C(=O)Cn2cnc3c(=O)[nH]c(N)nc32)C(=O)Cn2cnc3c(N)ncnc32)C(=O)Cn2cnc3c(N)ncnc32)C(=O)Cn2cc(C)c(=O)[nH]c2=O)C(=O)Cn2cnc3c(N)ncnc32)C(=O)Cn2cnc3c(=O)[nH]c(N)nc32)C(=O)Cn2cc(C)c(=O)[nH]c2=O)C(=O)Cn2ccc(N)nc2=O)C(=O)Cn2cc(C)c(=O)[nH]c2=O)C(=O)Cn2cnc3c(=O)[nH]c(N)nc32)C(=O)Cn2cnc3c(N)ncnc32)C(=O)Cn2ccc(N)nc2=O)C(=O)Cn2cc(C)c(=O)[nH]c2=O)C(=O)Cn2cnc3c(N)ncnc32)C(=O)Cn2ccc(N)nc2=O)C(=O)Cn2cnc3c(N)ncnc32)C(=O)Cn2cnc3c(N)ncnc32)C(=O)Cn2ccc(N)nc2=O)C(=O)Cn2cc(C)c(=O)[nH]c2=O)[C@@H](COC(C)=O)OC(C)=O)[C@H](OC(C)=O)[C@@H](OC(C)=O)[C@H]1OC(C)=O [PNA 6-LBAAc] | – | limited to the kidney only | slower biodistribution | 4 | concentration increased in the kidney | accumulation | > 4
3 | tris N-acetylgalactosamine [tGalNAc, reference compound] | ASGPR mediated cellular uptake | – | – | – | – | – | –
